From the supplement of paper PMC9112550, “Optimization of the antimicrobial peptide Bac7 by deep mutational scanning” (BMC Biology, 2022) come the findings set out here.

The test system of this data set is Escherichia coli TOP10. Briefly: shrunken log2 fold change of peptide-encoding DNA abundance (4.5 h post-induction vs induction); higher = less antimicrobial activity (less host growth inhibition). As to conditions: time post-induction: 4.5 h; library: site-saturation at positions 5, 18, 19, 20.
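Note: peptides expressed intracellularly from a pBAD plasmid library in pooled LB shake-flask culture, induced with 0.3% L-arabinose, DNA abundance read by NGS, three biological replicates, DESeq2 with apeglm shrinkage.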

For the sequence RRIRWRPPRLPRPRPRPPYPPRP, the “shrunken log2 fold change” value worked out at 0.0905.
The figure for RRIRPRPPRLPRPRPRPKSIPRP is -0.352; for RRIRNRPPRLPRPRPRPWNNPRP it is -0.15; for RRIRKRPPRLPRPRPRPCICPRP it is -0.14.
In the case of RRIRCRPPRLPRPRPRPKSPPRP it was -0.1.
In the case of RRIRCRPPRLPRPRPRPGLEPRP it was 0.203; in that of RRIRDRPPRLPRPRPRPTVYPRP, 0.12; in that of RRIRKRPPRLPRPRPRPGIFPRP, 0.409.
As for RRIRGRPPRLPRPRPRPYCKPRP, the “shrunken log2 fold change” value came to 0.0688.
The figure for RRIRQRPPRLPRPRPRPECRPRP is 0.414; for RRIRDRPPRLPRPRPRPVADPRP it is 0.22; for RRIRYRPPRLPRPRPRPYSSPRP it is -0.0396.
In the case of RRIRERPPRLPRPRPRPTFIPRP it was -0.291.
Turning to RRIRYRPPRLPRPRPRPRWFPRP, the “shrunken log2 fold change” value was -0.0532.
In the case of RRIRIRPPRLPRPRPRPVNYPRP it was -0.0508; in that of RRIRERPPRLPRPRPRPMMNPRP, -0.122.
As to RRIRMRPPRLPRPRPRPWAGPRP, the “shrunken log2 fold change” value is 0.235.
The figure for RRIRSRPPRLPRPRPRPTPEPRP is 0.866; for RRIRDRPPRLPRPRPRPYYWPRP it is -0.184.
In the case of RRIRQRPPRLPRPRPRPTIVPRP it was -0.119; in that of RRIRRRPPRLPRPRPRPHNIPRP, -0.127; in that of RRIRSRPPRLPRPRPRPWYLPRP, -0.617.
The figure for RRIRQRPPRLPRPRPRPQPKPRP is 0.0658.
Regarding RRIRWRPPRLPRPRPRPCVKPRP, the “shrunken log2 fold change” value is -0.0416.
In the case of RRIRERPPRLPRPRPRPADFPRP it was 0.0432; in that of RRIRFRPPRLPRPRPRPNGWPRP, 0.0579.
As for RRIRSRPPRLPRPRPRPQRSPRP, the “shrunken log2 fold change” value stood at 0.316.
The figure for RRIRNRPPRLPRPRPRPMNSPRP is -0.148; for RRIRVRPPRLPRPRPRPSNHPRP it is -0.636.
The figure for RRIRMRPPRLPRPRPRPKICPRP is -0.155.
The figure for RRIRPRPPRLPRPRPRPQSQPRP is -0.00349.
For RRIRRRPPRLPRPRPRPLLVPRP, the “shrunken log2 fold change” value is 0.329.
In the case of RRIRQRPPRLPRPRPRPMMGPRP it was -0.107; in that of RRIRNRPPRLPRPRPRPNVNPRP, -0.795.
The figure for RRIRTRPPRLPRPRPRPYPYPRP is -0.0787.
In the case of RRIRDRPPRLPRPRPRPMRWPRP it was 0.274.
For RRIRERPPRLPRPRPRPIPFPRP, the “shrunken log2 fold change” value is -0.0238.
On to RRIRDRPPRLPRPRPRPLLVPRP, for which the “shrunken log2 fold change” value was 0.134.
In the case of RRIRLRPPRLPRPRPRPTFYPRP it was -0.273.
For the sequence RRIRCRPPRLPRPRPRPAPFPRP, the “shrunken log2 fold change” value amounted to 0.0214.
As for RRIRPRPPRLPRPRPRPFGQPRP, the “shrunken log2 fold change” value is -0.34.
In the case of RRIRYRPPRLPRPRPRPFDHPRP it was -0.0332; in that of RRIRLRPPRLPRPRPRPYKHPRP, -0.619; in that of RRIRWRPPRLPRPRPRPTTVPRP, 0.11.
The figure for RRIRVRPPRLPRPRPRPPCVPRP is -0.112.
With RRIRKRPPRLPRPRPRPKLMPRP, the “shrunken log2 fold change” value stood at 0.267.
In the case of RRIRRRPPRLPRPRPRPMNSPRP it was -0.101; in that of RRIRWRPPRLPRPRPRPWFLPRP, -0.617; in that of RRIRVRPPRLPRPRPRPVNIPRP, -0.584.
For RRIRGRPPRLPRPRPRPAMWPRP, the “shrunken log2 fold change” value came to 1.02.
Turning to RRIRVRPPRLPRPRPRPPMQPRP, the “shrunken log2 fold change” value came to 0.152.
As to RRIRYRPPRLPRPRPRPGPMPRP, the “shrunken log2 fold change” value was -0.148.
In the case of RRIRDRPPRLPRPRPRPRFVPRP it was 0.0484.
With RRIRDRPPRLPRPRPRPAPRPRP, the “shrunken log2 fold change” value worked out at 1.07.
Regarding RRIRIRPPRLPRPRPRPDFGPRP, the “shrunken log2 fold change” value was -0.196.
The figure for RRIRLRPPRLPRPRPRPVICPRP is -0.16; for RRIRDRPPRLPRPRPRPRSLPRP it is -0.0214; for RRIRLRPPRLPRPRPRPRRRPRP it is 0.395.
RRIRSRPPRLPRPRPRPKPRPRP: the “shrunken log2 fold change” value stood at 0.594.
In the case of RRIRMRPPRLPRPRPRPKKDPRP it was 0.942; in that of RRIRWRPPRLPRPRPRPYECPRP, -0.148; in that of RRIRERPPRLPRPRPRPHQCPRP, -0.262.
In the case of RRIRPRPPRLPRPRPRPLSWPRP it was 0.238.
In the case of RRIRLRPPRLPRPRPRPYCRPRP it was -0.256.
Consider RRIRIRPPRLPRPRPRPQSKPRP, for which the “shrunken log2 fold change” value is -0.493.
The figure for RRIRTRPPRLPRPRPRPRSSPRP is 0.0755; for RRIRCRPPRLPRPRPRPFMDPRP it is -0.361.
The figure for RRIRERPPRLPRPRPRPIAGPRP is 0.0426; for RRIRLRPPRLPRPRPRPNGVPRP it is 0.0191.
The figure for RRIRCRPPRLPRPRPRPIGPPRP is 0.112.
Regarding RRIRHRPPRLPRPRPRPSVAPRP, the “shrunken log2 fold change” value is -0.156.
In the case of RRIRVRPPRLPRPRPRPTWWPRP it was 0.0544; in that of RRIRTRPPRLPRPRPRPNFMPRP, -0.401; in that of RRIRSRPPRLPRPRPRPSSLPRP, -0.255.
Take RRIRSRPPRLPRPRPRPRKEPRP: the “shrunken log2 fold change” value was 0.131.
In the case of RRIRVRPPRLPRPRPRPHRWPRP it was 0.0461.
In the case of RRIRCRPPRLPRPRPRPDLLPRP it was -0.393; in that of RRIRRRPPRLPRPRPRPFQKPRP, -0.0282.
Regarding RRIRWRPPRLPRPRPRPTKKPRP, the “shrunken log2 fold change” value came out at 0.0726.
RRIRKRPPRLPRPRPRPRHIPRP: the “shrunken log2 fold change” value was -0.0145.
The figure for RRIRYRPPRLPRPRPRPTFTPRP is -0.566; for RRIRRRPPRLPRPRPRPAQGPRP it is -0.179; for RRIRERPPRLPRPRPRPAVDPRP it is 0.116.
The figure for RRIRIRPPRLPRPRPRPPEEPRP is 0.0652; for RRIRKRPPRLPRPRPRPRHPPRP it is 0.412.
In the case of RRIRPRPPRLPRPRPRPEWLPRP it was 0.404.
Turning to RRIRRRPPRLPRPRPRPAARPRP, the “shrunken log2 fold change” value worked out at 0.287.
The figure for RRIRFRPPRLPRPRPRPTWYPRP is -0.0222.
With RRIRCRPPRLPRPRPRPGLRPRP, the “shrunken log2 fold change” value was found to be 0.147.
The figure for RRIRHRPPRLPRPRPRPYAPPRP is -0.737; for RRIRARPPRLPRPRPRPNSQPRP it is 0.0062.
